{"source": "patent US20250163183", "target": "LP3, LP9, LP11, and LP18", "data": [{"protein": "human activated protein C (APC) (protein) ANSFLEELRHSSLERECIEEICDFEEAKEIFQNVDDTLAFWSKHVDGDQCLVLPLEHPCASLCCGHGTCIDGIGSFSCDCRSGWEGRFCQREVSFLNCSLDNGGCTHYCLEEVGWRRCSCAPGYKLGDDLLQCHPAVKFPCGRPWKRMEKKRSHLLIDGKMTRRGDSPWQVVLLDSKKKLACGAVLIHPSWVLTAAHCMDESKKLLVRLGEYDLRRWEKWELDLDIKEVFVHPNYSKSTTDNDIALLHLAQPATLSQTIVPICLPDSGLAERELNQAGQETLVTGWGYHSSREKEAKRNRTFVLNFIKIPVVPHNECSEVMSNMVSENMLCAGILGDRQDACEGDSGGPMVASFHGTWFLVGLVSWGEGCGLLHNYGVYTKVSRYLDWIHGHIRDKEAPQKSWAP", "values": [{"measurement": "APC-mediated SEAP-PAR1 cleavage at 0.7-6 nM nanobody", "result": "reduced PAR1 cleavage down to 73-82% of controls"}]}]}
